Residue numbers refer to the chain shown, from its start. Names may count otherwise.
T1: human Fc receptor CD32a-GST fusion protein (human, UniProt P12318 34-217)
T1 construct: not shown: GST
T1 sequence (looked up): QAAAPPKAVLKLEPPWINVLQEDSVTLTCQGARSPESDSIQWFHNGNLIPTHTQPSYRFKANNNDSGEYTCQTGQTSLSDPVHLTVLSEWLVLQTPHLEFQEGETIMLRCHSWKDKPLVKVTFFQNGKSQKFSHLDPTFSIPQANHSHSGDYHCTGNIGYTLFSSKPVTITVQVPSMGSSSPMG

T2: human Fc receptor CD32b-GST fusion protein (human, UniProt P31994 43-217)
T2 construct: not shown: GST
T2 sequence (looked up): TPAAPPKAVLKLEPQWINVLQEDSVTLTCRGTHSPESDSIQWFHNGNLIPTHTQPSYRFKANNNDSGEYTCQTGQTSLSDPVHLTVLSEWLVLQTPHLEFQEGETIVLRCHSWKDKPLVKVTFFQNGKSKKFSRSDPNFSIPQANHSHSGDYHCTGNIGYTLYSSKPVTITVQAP

T3: LINGO-Fc (human, UniProt Q96FE5 40-538, limits assumed)
T3 construct: not shown: Fc part
T3 sequence: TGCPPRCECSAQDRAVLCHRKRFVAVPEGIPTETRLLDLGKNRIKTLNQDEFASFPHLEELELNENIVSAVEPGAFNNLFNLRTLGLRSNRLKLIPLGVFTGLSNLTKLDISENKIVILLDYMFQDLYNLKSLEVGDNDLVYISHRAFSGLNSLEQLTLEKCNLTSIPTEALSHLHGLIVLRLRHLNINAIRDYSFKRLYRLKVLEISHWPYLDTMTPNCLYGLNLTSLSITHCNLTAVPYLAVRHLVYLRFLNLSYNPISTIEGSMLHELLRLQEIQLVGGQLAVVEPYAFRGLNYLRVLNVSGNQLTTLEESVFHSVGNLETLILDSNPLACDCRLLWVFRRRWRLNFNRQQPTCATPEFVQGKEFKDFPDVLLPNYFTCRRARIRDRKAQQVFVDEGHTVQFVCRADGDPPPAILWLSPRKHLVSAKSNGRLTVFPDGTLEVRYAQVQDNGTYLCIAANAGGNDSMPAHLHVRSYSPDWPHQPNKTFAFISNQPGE

B1: Li81 (agly) (antibody, human IgG1)
heavy: not shown
VL: DIQMTQSPATLSLSPGERATLSCRASQSVSSYLAWYQQKPGQAPRLLIYDASNRATGIPARFSGSGSGTDFTLTISSLEPEDFAVYYCQQRSNWPMYTFGQGTKLEIK
notes: Aglycosylated fully human IgG1 (single T to A change in the heavy chain); also called Li81 Ig1agly; Li81 Mab; copies: 2 + 2
B2: Li33 variant W94L (SEQ ID NO:167) (antibody, V domains shown)
VH: EVQLLESGGGLVQPGGSLRLSCAASGFTFSIYPMFWVRQAPGKGLEWVSWIGPSGGITKYADSVKGRFTISRDNSKNTLYLQMNSLRAEDTATYYCAREGHNDWYFDLWGRGTLVTVSS
VL: DIQMTQSPGTLSLSPGERATLSCRASQSVSSYLAWYQQKPGQAPRLLIYDASNRATGIPARFSGSGSGTEFTLTISSLQSEDFAVYYCQQYDKLPLTFGGGTKVEIKR
notes: unchanged chain from WT Li33
B3: Li33 variant W94S (SEQ ID NO:172) (antibody, V domains shown)
VH: B2 VH
VL: B2 VL with L94S
notes: unchanged chain from WT Li33
B4: Li33 variant W104M (SEQ ID NO:176) (antibody, V domains shown)
VH: B2 VH with W104M
VL: B2 VL with L94W
notes: unchanged chain from WT Li33
B5: Li33 variant W104S (SEQ ID NO:157) (antibody, V domains shown)
VH: B2 VH with W104S
VL: B2 VL with L94W
notes: unchanged chain from WT Li33
B6: Li33 variant W104H (SEQ ID NO:156) (antibody, V domains shown)
VH: B2 VH with W104H
VL: B2 VL with L94W
notes: unchanged chain from WT Li33
B7: Li33 variant W104I (SEQ ID NO:179) (antibody, V domains shown)
VH: B2 VH with W104I
VL: B2 VL with L94W
notes: unchanged chain from WT Li33
B8: Li33 variant W94V (SEQ ID NO:171) (antibody, V domains shown)
VH: B2 VH
VL: B2 VL with L94V
notes: unchanged chain from WT Li33
B9: Li33 variant W104T (SEQ ID NO:178) (antibody, V domains shown)
VH: B2 VH with W104T
VL: B2 VL with L94W
notes: unchanged chain from WT Li33
B10: Li33 variant W104Q (SEQ ID NO:158) (antibody, V domains shown)
VH: B2 VH with W104Q
VL: B2 VL with L94W
notes: unchanged chain from WT Li33
B11: Li33 variant W104Q (SEQ ID NO:187) (antibody, V domains shown)
VH: B2 VH with W104Q
VL: B2 VL with L94W
notes: unchanged chain from WT Li33
B12: Li33 variant W104L (SEQ ID NO:177) (antibody, V domains shown)
VH: B2 VH with W104L
VL: B2 VL with L94W
notes: unchanged chain from WT Li33
B13: Li33 variant W104V (SEQ ID NO:155) (antibody, V domains shown)
VH: B2 VH with W104V
VL: B2 VL with L94W
notes: unchanged chain from WT Li33
B14: Li33 variant W94N (SEQ ID NO:168) (antibody, V domains shown)
VH: B2 VH
VL: B2 VL with L94N
notes: unchanged chain from WT Li33
B15: Li33 variant W94Q (SEQ ID NO:170) (antibody, V domains shown)
VH: B2 VH
VL: B2 VL with L94Q
notes: unchanged chain from WT Li33

What was measured:
[1] = target: T1, human Fc receptor CD32a-GST fusion …; assay: ALPHA competition vs biotinylated wild-type IgG1; relative to wt
[2] = target: T4, human Fc receptor CD64-GST fusion protein (human, UniProt P12314 16-292, limits assumed); assay: as above
T4 construct: not shown: GST

[3] = target: T5, human Fc receptor CD16-GST fusion protein (human, UniProt P08637 17-208); assay: as above
T5 construct: not shown: GST

[4] = target: T2, human Fc receptor CD32b-GST fusion …; assay: as above
[5] = target: T1, human Fc receptor CD32a-GST fusion …; assay: ALPHA competition vs biotinylated wild-type IgG1; receptor-GST
[6] = target: T5, human Fc receptor CD16-GST fusion …; assay: as above
[7] = target: T2, human Fc receptor CD32b-GST fusion …; assay: as above
LINGO-Fc [8] = target: T3, LINGO-Fc; assay: direct ELISA on LINGO-Fc; half-maximal concentration relative to Li33;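 also: direct binding ELISA on plates coated with LINGO-Fc, concentration giving half of saturating binding, expressed as a ratio to the same value for the comparator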
LINGO-Fc [9] = target: T3, LINGO-Fc; assay: direct ELISA on LINGO-Fc; OD450 at saturation relative to Li33;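 also: binding to plate-coated LINGO-Fc read by OD450, with the value at maximal saturation divided by the corresponding Li33 value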

| Binder | ELISA Ratio (LINGO-Fc [8]) | Plateau Ratio (LINGO-Fc [9]) | further results |
| --- | --- | --- | --- |
| B1 |  |  | fold decrease from wt [1]: 60 fold; fold decrease from wt [2]: > 100 fold; fold decrease from wt [3]: 50 fold; fold decrease from wt [4]: 15 fold; IC50 [5]: 365 µg/mL; IC50 [6]: 179 µg/mL; IC50 [7]: 350 µg/mL |
| B2 | 0.6 ratio | 0.97 ratio |  |
| B3 | 1.3 ratio | 0.99 ratio |  |
| B4 | 3.8 ratio | 0.88 ratio |  |
| B5 | 2.7 ratio | 0.85 ratio |  |
| B6 | 0.1 ratio | 0.91 ratio |  |
| B7 | 6.5 ratio | 0.62 ratio |  |
| B8 | 1.4 ratio | 0.91 ratio |  |
| B9 | 3.5 ratio | 0.33 ratio |  |
| B10 | 2.4 ratio | 0.91 ratio |  |
| B11 | 1.1 ratio | 0.67 ratio |  |
| B12 | 2.5 ratio | 0.69 ratio |  |
| B13 | 2.8 ratio | 0.94 ratio |  |
| B14 | 0.8 ratio | 1.05 ratio |  |
| B15 | 0.9 ratio | 1.05 ratio |  |

Source: patent publication US20130323786A1 (Biogen, published 2013)
